One block for each binder: values may come before it.
Legend:
[1] = molecular target: T1, human complement protein C6 (human, UniProt P13671 22-934); assay: ELISA, purified protein, anti-human IgG (Fab-specific) detection
T1 construct: also called human C6; C6 antigen
Procedure: The binding of the purified chimeric molecules, MoC601 HuG4K and MoC601 HuG1KFab, was also confirmed by ELISA, where the anti-human IgG (Fab-specific) secondary reagent was used. The control mouse antibody bound as previously (EC₅₀ 0.11 nM). The EC₅₀ for purified MoC601 HuG4K (0.27 nM) was similar to that obtained for the MoC601 HuG4K supernatant sample above. […] The EC₅₀ value for the Fab molecule (0.48 nM) was higher than for the antibody, which would be expected since the Fab is unable to bind bivalently to the antigen on the well. A C6-binding assay was also set up on the Octet RED384 instrument. […] However, MoC601 MoG1K could be stably loaded onto anti-mouse Fc (AMC) biosensors. Concentrations of the mouse and chimeric antibodies were adjusted to give similar levels of loading on to the AMC and […]

[2] = molecular target: T1, human complement protein C6; assay: C6-binding ELISA, A650 nm; sample 'mouse serum' (28 days at 37 C)
Procedure: (§1) For the serum stability assessment, samples of the purified candidate antibodies are normally incubated in mouse, human and cynomolgus serum at 37 C for 28 days and then tested in an antigen-binding ELISA. Since the anti-C6 antibodies are expected to bind to both human and cynomolgus C6 but not mouse C6, we anticipated that incubating in human or cynomolgus sera would reduce ELISA binding due to occupation of the antibody binding sites by C6 protein from the sera. Therefore, the chimeric and humanized antibodies were tested with human and mouse sera and with human sera from which the C6 protein has been depleted. […]
(§2) Binding ELISAs used Nunc Maxisorp 384-well plates, wells coated with C6, C5b,6 complex or C5 (Complement Technology Inc, TX) and goat anti-human IgG (Fab specific) peroxidase secondary antibodies (Sigma-Aldrich, A0293) for detection. For the thermal stability assay, IgG supernatants were diluted to their EC₈₀ concentration, incubated at different temperatures for 10 min and C6 binding measured by ELISA with the binding signal plotted against temperature. Kinetics of C6 binding were measured by capturing antibodies from supernatant samples using Protein G biosensors and performing a 20 min association step with 2.5 nM C6 and a 20 min dissociation step using the Octet RED96. […]

[3] = molecular target: T1, human complement protein C6; assay: C6-binding ELISA, A650 nm; sample 'C6-depleted human serum' (28 days at 37 C)
Procedure: as §1, §2

[4] = molecular target: T1, human complement protein C6; assay: C6-binding ELISA, A650 nm; sample 'human serun' (human serum, 28 days at 37 C)
Procedure: as §1, §2

[5] = molecular target: T1, human complement protein C6; assay: C6-binding ELISA, A650 nm; sample 'PBS, non-incubated' (kept at 4 C)
Procedure: (§3) The C6-binding ELISA was then used to compare the binding abilities of the C601 antibodies that had been incubated in the 3 different sera to antibody samples that were incubated in PBS at 37 C or kept at 4 C (non-incubated).
(§4) Binding ELISAs used Nunc Maxisorp 384-well plates, wells coated with C6, C5b,6 complex or C5 (Complement Technology Inc, TX) and goat anti-human IgG (Fab specific) peroxidase secondary antibodies (Sigma-Aldrich, A0293) for detection. For the thermal stability assay, IgG supernatants were diluted to their EC₈₀ concentration, incubated at different temperatures for 10 min and C6 binding measured by ELISA with the binding signal plotted against temperature. Kinetics of C6 binding were measured by capturing antibodies from supernatant samples using Protein G biosensors and performing a 20 min association step with 2.5 nM C6 and a 20 min dissociation step using the Octet RED96. […] Binding of C6 measured using a three-fold concentration series of C6 from 0.03 nM-25 nM and data were fitted using a 1:1 model in two independent experiments.
(§5) The Uncle instrument (Unchained Labs) was used to monitor unfolding via intrinsic fluorescence and aggregation by static light scattering across a temperature gradient to obtain melting temperatures (Tₘ). […] Isoelectric points were determined by capillary isoelectric focusing using a PA800+ (Beckman Coulter).

[6] = molecular target: T1, human complement protein C6; assay: SPR (Biacore 8K), IgG on protein G chip, C6 0.31-20 nM 2-fold series, 1:1 fit
Procedure: (§6) The kinetics of C6 binding was compared for the purified chimeric and lead humanized C601 using surface plasmon resonance (SPR, Biacore 8K). IgG were captured on a protein G sensor chip and binding of C6 measured using a three-fold concentration series of C6 from 0.03 nM-25 nM (FIG. 5). In a second experiment, a two-fold concentration series from 0.31 nM-20 nM C6 was used (FIG. 6). For all antibodies, binding of C6 occurred in a concentration-dependent manner and data could be fitted using a 1:1 model to calculate the association rate (kₒₙ), dissociation rates (kd) and affinity constant (KD). The kinetic data are shown in Table 5, which indicates only small differences between the parameters determined from the two independent experiments.

[7] = molecular target: T1, human complement protein C6; assay: SPR (Biacore 8K)
Procedure: as §6
(§7) Binding ELISAs used Nunc Maxisorp 384-well plates, wells coated with C6, C5b,6 complex or C5 (Complement Technology Inc, TX) and goat anti-human IgG (Fab specific) peroxidase secondary antibodies (Sigma-Aldrich, A0293) for detection. For the thermal stability assay, IgG supernatants were diluted to their EC₈₀ concentration, incubated at different temperatures for 10 min and C6 binding measured by ELISA with the binding signal plotted against temperature. Kinetics of C6 binding were measured by capturing antibodies from supernatant samples using Protein G biosensors and performing a 20 min association step with 2.5 nM C6 and a 20 min dissociation step using the Octet RED96. Precise kinetic measurements were obtained by surface plasmon resonance (Biacore 8K, Cytiva). The IgG were captured on a protein G sensor chip. Binding of C6 measured using a three-fold concentration series of C6 from 0.03 nM-25 nM and data were fitted using a 1:1 model in two independent experiments.

[8] = molecular target: T1, human complement protein C6; assay: ELISA, C6-coated wells, large-scale purified antibody
[9] = molecular target: human complement protein C5 (human, UniProt P01031 19-673; P01031 678-1676); assay: ELISA, C5-coated wells
human complement protein C5, sequence (P01031 19-673 limits assumed, chain 1 of 2): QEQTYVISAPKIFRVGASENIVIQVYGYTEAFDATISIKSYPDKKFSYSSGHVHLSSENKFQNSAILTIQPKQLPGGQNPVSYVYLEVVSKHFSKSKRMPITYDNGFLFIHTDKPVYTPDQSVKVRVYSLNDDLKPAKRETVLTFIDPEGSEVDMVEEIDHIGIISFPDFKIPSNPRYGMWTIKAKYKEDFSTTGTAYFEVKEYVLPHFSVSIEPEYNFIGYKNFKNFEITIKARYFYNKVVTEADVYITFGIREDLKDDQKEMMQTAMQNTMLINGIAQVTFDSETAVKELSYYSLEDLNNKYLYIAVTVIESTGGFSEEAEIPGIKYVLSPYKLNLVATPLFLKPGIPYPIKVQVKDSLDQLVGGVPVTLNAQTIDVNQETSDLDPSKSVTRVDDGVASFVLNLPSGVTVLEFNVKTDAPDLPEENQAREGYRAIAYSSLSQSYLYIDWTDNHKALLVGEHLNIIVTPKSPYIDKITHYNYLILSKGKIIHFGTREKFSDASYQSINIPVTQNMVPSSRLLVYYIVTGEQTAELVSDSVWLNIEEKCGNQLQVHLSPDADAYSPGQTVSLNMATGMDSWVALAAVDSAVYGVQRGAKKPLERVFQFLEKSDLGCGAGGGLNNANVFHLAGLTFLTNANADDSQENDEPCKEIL
human complement protein C5, sequence (P01031 678-1676 limits assumed, chain 2 of 2): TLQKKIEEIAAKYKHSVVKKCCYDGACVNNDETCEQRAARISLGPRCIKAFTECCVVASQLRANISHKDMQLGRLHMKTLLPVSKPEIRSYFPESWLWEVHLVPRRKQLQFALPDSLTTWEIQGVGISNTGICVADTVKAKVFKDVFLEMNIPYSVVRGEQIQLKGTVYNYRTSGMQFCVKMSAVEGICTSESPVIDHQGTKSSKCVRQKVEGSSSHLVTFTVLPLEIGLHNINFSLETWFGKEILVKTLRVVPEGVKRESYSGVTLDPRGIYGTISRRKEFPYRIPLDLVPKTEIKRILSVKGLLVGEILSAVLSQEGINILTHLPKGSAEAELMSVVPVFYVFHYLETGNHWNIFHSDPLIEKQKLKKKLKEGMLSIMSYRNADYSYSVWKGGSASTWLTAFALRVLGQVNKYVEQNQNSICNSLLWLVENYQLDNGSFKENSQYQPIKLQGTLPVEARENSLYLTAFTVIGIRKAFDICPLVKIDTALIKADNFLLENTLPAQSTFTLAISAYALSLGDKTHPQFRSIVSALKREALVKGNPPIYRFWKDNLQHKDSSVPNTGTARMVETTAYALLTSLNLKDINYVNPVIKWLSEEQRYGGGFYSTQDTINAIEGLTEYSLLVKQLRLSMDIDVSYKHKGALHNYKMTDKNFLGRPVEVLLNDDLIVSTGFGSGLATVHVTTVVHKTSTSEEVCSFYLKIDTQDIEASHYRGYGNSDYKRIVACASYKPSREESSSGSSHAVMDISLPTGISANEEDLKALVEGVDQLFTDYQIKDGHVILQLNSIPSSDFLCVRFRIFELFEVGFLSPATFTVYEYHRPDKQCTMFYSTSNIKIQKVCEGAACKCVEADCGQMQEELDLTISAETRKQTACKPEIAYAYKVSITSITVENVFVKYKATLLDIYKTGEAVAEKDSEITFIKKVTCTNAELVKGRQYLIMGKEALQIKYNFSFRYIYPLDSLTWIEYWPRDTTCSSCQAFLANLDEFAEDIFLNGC
Procedure: The 20 purified antibodies were tested by ELISA for their abilities to bind human complement proteins C5, C5b6 and C6. The antibodies were divided into two sets for this analysis. MoC601 HuG4K and HuG4K isotype controls were included alongside each set, as was C601HFKC4 HuG4K (aka 3713) expression supernatant from the original transfection as an additional positive control. In addition, three humanized antibodies (C601HFKC4 HuG4K, C601HPKI HuG4K and C601HPKC4 HuG4K) were included within both sets to allow better comparison between the plates. The antibodies all show specificity for C6 with no detectable binding to C5. All humanized antibodies bind to C6 and to C6 as part of the C5b6 complex. The lower plateaus of the C5b6 complex binding curves are explained by less C6 protein being available for binding when wells are coated with C5b6 complex as opposed to C6 alone. […] The EC₅₀ values are included in the figure but slightly different plateau levels observed for the antibodies are influencing the apparent EC₅₀ values. However, it was noted that the EC₅₀ values tended to be lower on the plates for the second set of antibodies. For this reason, a subset of the 20 antibodies was tested in a further ELISA for binding to C6 and C5b6 complex.
as §7

[10] = molecular target: T1, human complement protein C6; assay: SPR (Biacore 8K), IgG on protein G chip, C6 0.03-25 nM 3-fold series, 1:1 fit
Procedure: as §6, §7

[11] = molecular target: T1, human complement protein C6; assay: C6-binding ELISA, A650 nm; sample 'PBS' (28 days at 37 C)
Procedure: (§8) For the serum stability assessment, samples of the purified candidate antibodies are normally incubated in mouse, human and cynomolgus serum at 37 C for 28 days and then tested in an antigen-binding ELISA. Since the anti-C6 antibodies are expected to bind to both human and cynomolgus C6 but not mouse C6, we anticipated that incubating in human or cynomolgus sera would reduce ELISA binding due to occupation of the antibody binding sites by C6 protein from the sera. Therefore, the chimeric and humanized antibodies were tested with human and mouse sera and with human sera from which the C6 protein has been depleted. The C6-binding ELISA was then used to compare the binding abilities of the C601 antibodies that had been incubated in the 3 different sera to antibody samples that were incubated in PBS at 37 C or kept at 4 C (non-incubated).
as §5, with “Coulter). […]” for “Coulter).”

[12] = molecular target: T1, human complement protein C6; assay: C6-binding ELISA, A650 nm; sample 'mouse serum' (28 days at 37 C) [cont.) D]
Procedure: as §8
as §5, with “Coulter). […]” for “Coulter).”

[13] = molecular target: T1, human complement protein C6; assay: C6-binding ELISA, A650 nm; sample 'C6-depleted human serum' (28 days at 37 C) [cont.) D]
Procedure: as §8
as §5, with “Coulter). […]” for “Coulter).”

[14] = molecular target: T1, human complement protein C6; assay: C6-binding ELISA, A650 nm; sample 'PBS, non-incubated' (kept at 4 C) [cont.) D]
Procedure: as §3, §4, §5

[15] = molecular target: T1, human complement protein C6; assay: C6-binding ELISA, A650 nm; sample 'human serun' (human serum, 28 days at 37 C) [cont.) D]
Procedure: as §8
as §5, with “Coulter). […]” for “Coulter).”

[16] = molecular target: T1, human complement protein C6; assay: C6-binding ELISA, A650 nm; sample 'PBS' (28 days at 37 C) [cont.) D]
Procedure: as §1, §2

T1 sequence (P13671 22-934 limits assumed): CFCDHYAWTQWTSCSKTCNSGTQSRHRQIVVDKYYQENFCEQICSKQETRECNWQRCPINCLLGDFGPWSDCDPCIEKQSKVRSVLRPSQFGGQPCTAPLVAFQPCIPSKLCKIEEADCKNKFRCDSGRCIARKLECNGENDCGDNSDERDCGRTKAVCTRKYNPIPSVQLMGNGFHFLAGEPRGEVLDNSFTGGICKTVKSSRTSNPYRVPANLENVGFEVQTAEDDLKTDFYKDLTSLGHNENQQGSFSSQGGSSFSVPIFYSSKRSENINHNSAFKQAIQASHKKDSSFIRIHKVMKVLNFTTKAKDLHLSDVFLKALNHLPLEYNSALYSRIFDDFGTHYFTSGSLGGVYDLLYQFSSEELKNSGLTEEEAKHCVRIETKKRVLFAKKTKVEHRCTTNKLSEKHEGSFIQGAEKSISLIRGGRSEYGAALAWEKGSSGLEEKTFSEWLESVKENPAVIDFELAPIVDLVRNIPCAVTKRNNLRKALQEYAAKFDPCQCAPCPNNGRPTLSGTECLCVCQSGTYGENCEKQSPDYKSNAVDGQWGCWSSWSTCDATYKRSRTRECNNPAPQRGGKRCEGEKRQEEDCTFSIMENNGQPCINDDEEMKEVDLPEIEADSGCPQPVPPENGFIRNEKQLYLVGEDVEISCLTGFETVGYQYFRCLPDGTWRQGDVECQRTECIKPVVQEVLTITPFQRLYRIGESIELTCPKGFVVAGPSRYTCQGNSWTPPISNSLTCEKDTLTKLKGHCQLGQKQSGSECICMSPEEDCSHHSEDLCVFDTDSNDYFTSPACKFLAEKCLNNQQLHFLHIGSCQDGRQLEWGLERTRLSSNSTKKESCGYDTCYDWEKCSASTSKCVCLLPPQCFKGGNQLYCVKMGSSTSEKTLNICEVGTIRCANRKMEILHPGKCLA

EC50 [1]: 480 pM
B1: MoC601 HuG1KFab (Fab, V domains shown)
VH: QVQLQQSGAELVKPGASVKISCKASGYAFSDYWMNWVKQRPGKGLEWIGQIYPGDDDTNYNGKFKGKATLTADKSSSTAYMQLSSLTSEDSAVYFCAREGYYGYTYVEYFDVWGTGTTVTVSS
VL: QIVLTQSPAIMSVSPGEKVTLTCSASSSVSYMHWYQQKSGTSPKRWIYDTSKLASGVPARFSGSGSGTSYSLTISSMEAEDAATYYCQQWTSNPLTFGAGTKLELRR
notes: also called chimeric Fab; Fab molecule

EC50 [2]: 180 pM
EC50 [3]: 190 pM
EC50 [4]: 200 pM
EC50 [5]: 200 pM
Kd [6]: 279 pM
koff [6]: 0.000317 s⁻¹
kon [6]: 1.14e+06 M⁻¹ s⁻¹
Kd [7]: 348 pM
EC50 [8]: 220 pM
binding result [9]: no binding
Kd [10]: 348 pM
koff [10]: 0.000308 s⁻¹
kon [10]: 890000 M⁻¹ s⁻¹
EC50 [11]: 220 pM
B2: C601HFKI HuG4K (antibody, human IgG4 S228P, kappa)
heavy: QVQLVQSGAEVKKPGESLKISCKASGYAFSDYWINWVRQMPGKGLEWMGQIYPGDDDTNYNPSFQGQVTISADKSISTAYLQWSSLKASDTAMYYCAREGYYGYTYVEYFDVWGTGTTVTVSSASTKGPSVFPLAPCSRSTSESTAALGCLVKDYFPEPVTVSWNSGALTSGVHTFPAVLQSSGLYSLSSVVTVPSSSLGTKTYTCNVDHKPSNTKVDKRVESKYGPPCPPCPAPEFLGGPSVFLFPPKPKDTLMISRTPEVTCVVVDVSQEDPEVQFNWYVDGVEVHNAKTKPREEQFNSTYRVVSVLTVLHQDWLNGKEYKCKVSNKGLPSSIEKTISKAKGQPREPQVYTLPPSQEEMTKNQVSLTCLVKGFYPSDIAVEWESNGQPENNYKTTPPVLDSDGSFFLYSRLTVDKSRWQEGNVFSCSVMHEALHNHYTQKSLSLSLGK
light: EIVLTQSPATLSLSPGERATLSCRASSSVSYLHWYQQKPGQSPRLWIYDTSKRATGIPARFSGSGSGTDYTLTISSLEPEDFAVYYCQQWTSNPLTFGQGTKLEIKRTVAAPSVFIFPPSDEQLKSGTASVVCLLNNFYPREAKVQWKVDNALQSGNSQESVTEQDSKDSTYSLSSTLTLSKADYEKHKVYACEVTHQGLSSPVTKSFNRGEC

Kd [6]: 295 pM
koff [6]: 0.000361 s⁻¹
kon [6]: 1.23e+06 M⁻¹ s⁻¹
Kd [7]: 433 pM
EC50 [12]: 150 pM
EC50 [8]: 170 pM
EC50 [13]: 190 pM
binding result [9]: no binding
EC50 [14]: 140 pM
Kd [10]: 433 pM
koff [10]: 0.000445 s⁻¹
kon [10]: 1.03e+06 M⁻¹ s⁻¹
EC50 [15]: 190 pM
EC50 [16]: 170 pM
B3: C601HPKI HuG4K (antibody, human IgG4 S228P, kappa)
heavy: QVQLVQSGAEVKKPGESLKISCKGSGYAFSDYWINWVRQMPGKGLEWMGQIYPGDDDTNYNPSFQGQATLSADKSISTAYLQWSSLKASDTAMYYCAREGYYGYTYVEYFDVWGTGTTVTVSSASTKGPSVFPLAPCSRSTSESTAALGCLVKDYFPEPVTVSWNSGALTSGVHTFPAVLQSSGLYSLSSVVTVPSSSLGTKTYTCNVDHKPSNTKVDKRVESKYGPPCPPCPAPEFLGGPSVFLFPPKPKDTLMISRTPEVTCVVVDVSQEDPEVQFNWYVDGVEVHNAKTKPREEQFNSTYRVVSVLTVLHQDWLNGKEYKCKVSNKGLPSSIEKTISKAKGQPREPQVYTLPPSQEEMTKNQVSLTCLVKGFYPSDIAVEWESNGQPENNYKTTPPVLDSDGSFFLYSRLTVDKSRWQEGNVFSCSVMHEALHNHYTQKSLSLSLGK
light: B2 light

Reference: patent publication US20260125455A1 (CLEVELAND CLINIC FOUNDATION, published 2026)
